From US20220017630A1 (JIANGSU SIMCERE PHARMACEUTICAL, published 2022)

Legend:
[1] = molecular target: T1, Human TNFR2 recombinant protein (Sino 10417-H08H) (human, UniProt P20333 23-257); test: ELISA, coated antigen 0.5 ug/ml, antibody 28 ng/ml
T1 construct: also called hTNFR2 (His tag)
T1 sequence (looked up): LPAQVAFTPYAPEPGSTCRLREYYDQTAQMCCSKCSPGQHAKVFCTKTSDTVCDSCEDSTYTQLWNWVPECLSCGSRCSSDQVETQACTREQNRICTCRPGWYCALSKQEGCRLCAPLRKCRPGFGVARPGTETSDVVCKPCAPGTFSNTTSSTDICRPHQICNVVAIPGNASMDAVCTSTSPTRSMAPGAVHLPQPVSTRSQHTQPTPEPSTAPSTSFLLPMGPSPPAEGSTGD
Experimental: (§1) An microplate was pre-coated with 100 μl/well of 0.5 μg/ml human TNFR2 or cynomolgus TNFR2 (the same antigen protein as in Example 4). […] A mouse anti-human IgG Fc-HRP working solution (1:10000 dilution) was added to the plate at 100 μl/well after plate washing, and incubated with shaking at room temperature for 1.0 h. The plate was washed again, a HRP substrate TMB was added for color development prior to the termination of the reaction by adding termination solution. An microplate reader was used to read the absorption value.

[2] = molecular target: T2, cynomolgus TNFR2 (Sino 90102-C08H) (cynomolgus, UniProt A0A2K5VET2 132-366); test: ELISA, coated antigen 0.5 ug/ml, antibody 28 ng/ml
T2 construct: also called CynoTNFR2 (His tag)
T2 sequence: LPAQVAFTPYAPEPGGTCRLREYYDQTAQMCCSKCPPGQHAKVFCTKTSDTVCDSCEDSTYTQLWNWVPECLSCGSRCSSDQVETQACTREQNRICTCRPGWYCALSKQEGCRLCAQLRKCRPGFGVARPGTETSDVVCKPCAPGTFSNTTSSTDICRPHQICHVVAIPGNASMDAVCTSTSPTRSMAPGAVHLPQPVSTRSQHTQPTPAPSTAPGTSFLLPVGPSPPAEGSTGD
Experimental: as §1

[3] = molecular target: T3, human TNFR2 on the cell surface (CHO-TNFR2 cells; human Treg cells) (human, UniProt P20333 23-461); test: flow cytometry, blocking of TNFα-biotin on CHO-TNFR2 cells; against 002#
T3 construct: whole, on cells; The assay field of each row says which cells; also called TNFR2-CHO cell; TNFR2 on Treg cells
T3 sequence (looked up): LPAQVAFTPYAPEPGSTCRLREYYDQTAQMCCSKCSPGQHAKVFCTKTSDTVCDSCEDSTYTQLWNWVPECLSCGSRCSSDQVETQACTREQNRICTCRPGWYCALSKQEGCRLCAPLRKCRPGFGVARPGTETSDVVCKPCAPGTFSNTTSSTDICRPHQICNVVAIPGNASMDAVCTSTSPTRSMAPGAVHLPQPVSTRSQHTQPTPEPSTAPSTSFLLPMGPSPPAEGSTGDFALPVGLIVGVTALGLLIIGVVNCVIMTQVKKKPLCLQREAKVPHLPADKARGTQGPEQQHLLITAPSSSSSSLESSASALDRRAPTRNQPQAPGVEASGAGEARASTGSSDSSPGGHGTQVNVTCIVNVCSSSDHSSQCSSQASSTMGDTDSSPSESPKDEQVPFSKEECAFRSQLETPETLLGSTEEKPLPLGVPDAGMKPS
Experimental: CHO cells that stably overexpressed human TNFR2 were used for experiments. The cells were resuscitated and passaged until in good state, and the expression level of human TNFR2 on the cells was assessed by FACS. Compared to the isotype control, the assay could be carried out when the fold change of mean fluorescence intensity (MFI) was more than 100 times.
CHO-TNFR2 cells were digested, washed twice with DPBS and stained with Live/Dead (L/D) at room temperature for 20 min, and then seeded at 1×10⁵ cells/50 μl/well. […] The diluted antibodies were added 50 μl/well into wells pre-seeded with cells, and gently blown and mixed to make the final concentrations of the antibodies to 20, 6.67, 2.22, 0.74, 0.247, 0.08, 0.027 and 0 nM, respectively followed by incubation at 4° C. for 30 min. […] After washing twice with the staining buffer, 100 μl/well of PE-streptavidin was added and incubated at 4° C. for 30 min. After additional washing with the staining buffer twice, 150 μl resuspended cells was analyzed using an flow cytometry. Taking the logarithmic value of the antibody concentrations as abscissa and the corresponding MFI value as ordinate, the inhibition curve of the antibody was drawn, and the IC50 value was calculated by four parameters fitting.

[4] = molecular target: T3, human TNFR2 on the cell surface …; test: flow cytometry, blocking of TNFα-biotin on CHO-TNFR2 cells
[5] = molecular target: T4, human TNFR2 (Novoprotein, Catalog No. C830) (human, UniProt P20333 23-257, limits assumed); test: blocking ELISA, TNFα-biotin on coated human TNFR2, antibody 2 nM
T4 construct: construct not described; also called TNFR2 protein
T4 sequence (looked up): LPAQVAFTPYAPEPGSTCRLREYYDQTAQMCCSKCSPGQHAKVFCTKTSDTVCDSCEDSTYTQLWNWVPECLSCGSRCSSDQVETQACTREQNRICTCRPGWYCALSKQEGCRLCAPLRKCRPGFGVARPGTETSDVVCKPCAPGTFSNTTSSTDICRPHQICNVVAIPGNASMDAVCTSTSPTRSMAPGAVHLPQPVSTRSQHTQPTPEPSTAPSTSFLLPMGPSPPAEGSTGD
Experimental: (§2) A microplate was pre-coated with 100 μl/well of 1 μg/ml human TNFR2 (Novoprotein, Catalog No. C830). […] After washing the plate, a Streptavidin-HRP working solution (1:10000 dilution) was added at 100 μl/well, and incubated with shaking at room temperature for 40 min. The plate was washed again, the HRP substrate TMB was added for color development, the termination solution was added to terminate the reaction, and the microplate reader was used to read the absorption value.

[6] = molecular target: T4, human TNFR2 (Novoprotein, Catalog No. …); test: blocking ELISA, TNFα-biotin on coated human TNFR2; 002# OD / antibody OD x 100
Experimental: as §2

[7] = molecular target: T4, human TNFR2 (Novoprotein, Catalog No. …); test: blocking ELISA, TNFα-biotin on coated human TNFR2, antibody 20 nM
Experimental: as §2

B1: TNFR2 antibody #224 (antibody, V domains shown)
VH: EVQLQESGPEIVKPGASVKLSCTASGFNNKDIYMHWVKQRPEQGLEWIGRIDPATGNTKHDPKFQDKATLSSDTSSNTAYLQFSSLTSEDTAVYYCAHSPYGDFGAMDYWGQGTTVTVSS
VL: DIQMTQSPAIMSASLGERVTMTCTASSSVSSNYLHWYQQKPGSSPKLWIYSTSNLPSGVPARFSGSGSGTSYSLTISSMEAEDAATYYCHQYHRSPWTFGGGTKLEIK
ELISA OD [1]: 2.23 OD | ELISA OD [2]: 2.66 OD | IC50 Relative Value % [3]: 132% | Antibody AUC [4]: 40000 | ELISA OD of antibodies to be tested (2 nM) [5]: 1.44 OD | % to 002# OD (2 nM) [6]: 101% | % to 002# OD (20 nM) [6]: 277% | ELISA OD of antibodies to be tested (20 nM) [7]: 0.123 OD

B2: TNFR2 antibody #352 (antibody, V domains shown)
VH: EVQLQESGPGLVAPSQSLSITCTVSGFSLTSYGVHWVRQPPGKGLEWLVVIWSDGGTTYNSALKSRLSISKDNSKSQVFLKMNSLQTDDTAMYYCARHDDDGYYAMDYWGQGTTVTVSS
VL: DIVLTQSPSLMSASPGEKVTMTCSASSSVGYMYWYQQKPRSSPKPWIYLTSNLASGVPARFSGSGSGTSYSLTISSMEVEDAATYYCQQWSSDPFTFGSGTKLEIK
ELISA OD [1]: 3.12 OD | ELISA OD [2]: 3.12 OD | IC50 Relative Value % [3]: 171% | Antibody AUC [4]: 10700 | ELISA OD of antibodies to be tested (2 nM) [5]: 1.78 OD | % to 002# OD (2 nM) [6]: 88.2% | % to 002# OD (20 nM) [6]: 106% | ELISA OD of antibodies to be tested (20 nM) [7]: 0.474 OD

B3: TNFR2 antibody #365 (antibody, V domains shown)
VH: EVQLQESGPGLVQPSQSLSITCTVSGFSLTSYGVHWVRQSPGKGLEWLGLIWSDGSPDYSAAFISRLSINKDNSKSQVFFKMNSLQADDTAIYYCARNDDGGDYVMDYWGQGTTVTVSS
VL: EIVLTQSPALMSASPGEKVTMTCSASSSVSYMYWYQQKPRSSPKPWIYLTSNLASGVPARFSGSGSGTSYSLTISSMEAEDAATYYCQQWTSNPLTFGAGTKLEIK
ELISA OD [1]: 3.19 OD | ELISA OD [2]: 3.15 OD | IC50 Relative Value % [3]: 232% | Antibody AUC [4]: 10600 | ELISA OD of antibodies to be tested (2 nM) [5]: 1.26 OD | % to 002# OD (2 nM) [6]: 124% | % to 002# OD (20 nM) [6]: 120% | ELISA OD of antibodies to be tested (20 nM) [7]: 0.418 OD

B4: TNFR2 antibody #395 (antibody, V domains shown)
VH: EVQLQESGPVLVQPSQSLSITCTVSGFSLTSYSVHWVRQSPGKGLEWLGVIWSDGGTDYSAAFISRLSISKDNSKSQVFFKMNSLQADDTAIYYCARNDDGGDYAMDYWGQGTTVTVSS
VL: EIVLTQSPALMSASPGEKVTMTCSASSSVSYMYWYQQKPRSSPKPWIYLTSNLASGVPARFSGSGSGTSYSLTISSMEAEDAATYYCQQWSSNPLTFGAGTKLEIK
ELISA OD [1]: 3.17 OD | ELISA OD [2]: 3.15 OD | IC50 Relative Value % [3]: 270% | Antibody AUC [4]: 14900 | ELISA OD of antibodies to be tested (2 nM) [5]: 1.14 OD | % to 002# OD (2 nM) [6]: 138% | % to 002# OD (20 nM) [6]: 178% | ELISA OD of antibodies to be tested (20 nM) [7]: 0.282 OD

B5: TNFR2 antibody #133 (antibody, V domains shown)
VH: EVQLQESGAELVRSGASVKLSCTASGFNIKDYYIQWVKQRPEQGLEWIGWIDPESGNTKYAPKFQDKATMTADTSSNTAYLQLSGLTSEDSAVYYCNAYYDYDGSMDYWGQGTTVTVSS
VL: DIVMTQSPLSLPVSLGDQASISCRSSQSLVHSNGNTYLHWYLQKPGQSPKLLIYKVSNRFSGVPDRFSGSGSGTDFTLKISRVETDDLGVYFCSQSTHVPTWTFGGGTKLEIK
ELISA OD [1]: 3.12 OD | ELISA OD [2]: 3.18 OD | IC50 Relative Value % [3]: 150% | Antibody AUC [4]: 17300 | ELISA OD of antibodies to be tested (2 nM) [5]: 2.11 OD | % to 002# OD (2 nM) [6]: 74.6% | % to 002# OD (20 nM) [6]: 110% | ELISA OD of antibodies to be tested (20 nM) [7]: 0.454 OD

B6: TNFR2 antibody #001 (antibody, V domains shown)
VH: EVQLQESGGGLVQPGGSLNLSCAASGFAFSTYDLSWVRQTPEKRLEWVAYINNGGISTYYSDTVKGRFTISRDNAKNTLYLQMSSLKSEDTAMYYCVRGPFYGSANYFDYWGQGTTVTVSS
VL: EIVMTQSPASLSLSVGETVTITCRTSESIYSNLPWYQQKQGKSPQLLVYDATKLAEGVPSRFSGSESGTQYSLKINSLQSEDFGTYYCQHFWVTPWTFGGGTKLEIK
notes: also called antibody #1
ELISA OD [1]: 2.81 OD | ELISA OD [2]: 2.64 OD | IC50 Relative Value % [3]: 65.6% | Antibody AUC [4]: 34300 | ELISA OD of antibodies to be tested (2 nM) [5]: 0.805 OD | % to 002# OD (2 nM) [6]: 84.2% | % to 002# OD (20 nM) [6]: 126% | ELISA OD of antibodies to be tested (20 nM) [7]: 0.198 OD

B7: TNFR2 antibody #219 (antibody, V domains shown)
VH: EVQLQESGAELVRPGASVKLSCKASGYSFTNYWMNWVKQRPGQGLEWIGMIHPSDTETRLNQNFKDKATLTVDKSSSTSYMQLSSPTSEDSAVYYCARGEGLGAARSVSMDYWGQGTTVTVSS
VL: DILMTQSPSSLSASLGDRVTISCRASQDISNYLNWYQQKPDGTVKVLIYYTAILHSGVPSRFSGSGSGTDYSLTISNLEQEDIATYFCQQGNTLPWTFGGGTKLEIK
ELISA OD [1]: 3.37 OD | ELISA OD [2]: 3.41 OD | IC50 Relative Value % [3]: 71.4% | Antibody AUC [4]: 14900 | ELISA OD of antibodies to be tested (2 nM) [5]: 0.756 OD | % to 002# OD (2 nM) [6]: 89.7% | % to 002# OD (20 nM) [6]: 89% | ELISA OD of antibodies to be tested (20 nM) [7]: 0.28 OD

B8: TNFR2 antibody #226 (antibody, V domains shown)
VH: EVQLQESGAELVRPGASVKLSCKASGYSFTNYWMNWVKQRPGQGLEWIGMIHPSDSETRLNQKFKDKATLTVDKSSSTAYMQLSSPTSEDSAVYYCARGEGLGAARSVSMDYWGQGTTVTVSS
VL: DIQMTQSPSSLSASLGDRVTISCRASQDISNYLNWYQQKPDGTVKVLIYYTALLHSGVPSRFSGSGSGTDYSLTISNLEQEDIATYFCQQGNTLPWTFGGGTKLEIK
ELISA OD [1]: 3.34 OD | ELISA OD [2]: 3.28 OD | IC50 Relative Value % [3]: 129% | Antibody AUC [4]: 18600 | ELISA OD of antibodies to be tested (2 nM) [5]: 0.709 OD | % to 002# OD (2 nM) [6]: 95.7% | % to 002# OD (20 nM) [6]: 105% | ELISA OD of antibodies to be tested (20 nM) [7]: 0.237 OD
